B1: LILRB2 D1D2 (domain or fragment, human)
chain: GTIPKPTLWAEPDSVITQGSPVTLSCQGSLEAQEYRLYREKKSASWITRIRPELVKNGQFHIPSITWEHTGRYGCQYYSRARWSELSDPLVLVMTGAYPKPTLSAQPSPVVTSGGRVTLQCESQVAFGGFILCKEGEDEHPQCLNSQPHARGSSRAIFSVGPVSPNRRWSHRCYGYDLNSPYVWSSPSDLLELLVPG
notes: LILRB2 (ILT4), domains 1 and 2 (D1D2); also called LILRB2 D1D2 monomer; ILT4 D1D2
B2: LILRA3 D1D2 (domain 1 and domain 2, residues 1-197) (domain or fragment)
chain: GPLPKPTLWAEPGSVITQGSPVTLRCQGSLETQEYHLYREKKTALWITRIPQELVKKGQFPILSITWEHAGRYCCIYGSHTVGLSESSDPLELVVTGAYSKPTLSALPSPVVTSGGNVTIQCDSQVAFDGFILCKEGEDEHPQCLNSHSHARGSSRAIFSVGPVSPSRRWSYRCYGYDSRAPYVWSLPSDLLGLLVP
B3: LILRA3 D1 (domain 1, residues 1-97) (domain or fragment)
chain: GPLPKPTLWAEPGSVITQGSPVTLRCQGSLETQEYHLYREKKTALWITRIPQELVKKGQFPILSITWEHAGRYCCIYGSHTVGLSESSDPLELVVTG

What was measured:
[1] = molecular target: T1, HLA-G1 (heavy chain, β2m and peptide …) (human | , UniProt P17693-1 25-300; P61769 21-119); assay: SPR; BIAcore 3000; HLA-A*0201 (700 RU) or HLA-G1 (300 RU) immobilised by amine coupling on CM5 at pH 5.0, BSA as control surface; LILR injected; 25°C; 10 mM HEPES pH 7.4, 150 mM NaCl, 3 mM EDTA, 0.005% Tween-20; Kd by Scatchard analysis or nonlinear fit of a Langmuir isotherm; details: both partners purified
T1 construct: HLA-G1 heavy chain, recombinant; β2-microglobulin (β2m), from inclusion bodies; also called non-classical HLAI; copies: + +

[2] = molecular target: HLA-A*0201 (heavy chain, β2m and peptide …) (human |  | human SARS-CoV); assay: SPR; details: both partners purified

| Binder | Kd [1] | Kd [2] |
| --- | --- | --- |
| B1 | 5.62 µM | 9.74 µM |
| B2 |  | 28.5 µM |
| B3 |  | 40.1 µM |

— paper PMC3084784 (PLoS ONE, 2011)
